Patent US5108916A, “Process for stereoselectively hydrolyzing, transesterifying or esterifying with immobilized isozyme of lipase from Candida rugosa” (priority 1989, dated 1992)

How the values were obtained:
[1] = Hydrolysis of ketoprofen esters by lipases, acid by HPLC, ee via diastereomeric amides; type: biochemical
Procedure: To a solution of 9ml of 100mM ammonium phosphate (pH 5.5) in 50 ml Erlenmeyer flask a weighed amount of ester (either directly or dissolved in 200 ul DMF) was added. A solution of the weighed amount of enzyme in 1 ml of the same buffer was added. The mixture was agitated in a rotary shaker at 250 RPM at 35° C. typically for 22 hours. The reaction mixture was acidified with 8 drops 6(N) HCl to pH 1.5-2.0, extracted with CHCl3 (2×10 ml). The CHCl3 solution was analyzed by HPLC to determine the percent of acid produced in the hydrolysis.
The CHCl3 extract (5 ml) of the hydrolysis reaction was dried over anhydrous Na2 SO4 and filtered. The filtrate was cooled to 0° C. in stoppered vials and 100 ul of N-methylmorpholine, followed by 100 ul of isobutyl chloroformate were added. After gently shaking at 0° C. for 10 minutes, 100 ul of D-(+)-1-phenylethylamine was added and gently shaking at 0° C. was continued for 5 minutes. The reaction mixture was then shaken at room temperature for 5 minutes. The reaction mixture was washed with water (5 ml), 1(N) HCl (5 ml) and again with water (5 ml). The diastereomeric amides produced were then analyzed by HPLC on a column as specifically noted to determine the ee (%S-%R) of the acid produced by enzymatic hydrolysis of the esters.
Ketoprofen esters (50 mg) were hydrolyzed as above. HPLC analysis for the amount of acid produced for the ketoprofen monoglyceride and ketoprofen ethylene glycol ester hydrolysis were performed on Partisil 5 ODS-3 RAC column (9.4 mm×100 mm, Whatman) using CH3 OH: 10mM (NH4)H2 PO4 (60:40) at 4 ml/min and monitoring at 254 nm. HPLC analysis of the acid produced in the hydrolysis of the other esters were done on ODS-3 RAC column using CH3 OH: 10 mM (NH4)H2 PO4 (80:20) at 2ml/min and monitoring at 254 nm. The enantiomeric excess of the ketoprofen produced for each hydrolysis was determined by analysis of the amides by HPLC on ODS-3 RAC column using CH3 OH:10 mM (NH4)H2 PO4 (60:40) at 4 ml/min and monitoring at 254 nm. […]
To determine whether oleic acid could be used to enhance the rate/selectivity using other lipase and/or substrates, the following experiment was performed. 50 mg of either the diethylene glycol ester, triethylene glycol monomethyl ester, monoglyceride ester, or ethylene glycol ester was placed in 50 ml Erlenmeyer flasks. To this was added 50 mg of Lipase MY, 50 mg of the Mucor miehei lipase, 2.5 mg of the Candida cylindracea lipase (Biocatalyst), or 5 mg of lipase OF, all in 1 ml of buffer. 10 ul of pig liver esterase was also used. Oleic acid was added to the flasks at 200 ul. Buffer was added to a final volume of 10 ml, and the flasks were incubated at 35.C, 250 rpm, acidified, and extracted with CHCl3 and analyzed by HPLC as in Example 18.

[2] = Hydrolysis of R,S-HPPA methyl ester by free lipase or isozyme in aqueous buffer, R and S acids by HPLC; type: biochemical
Procedure: Lipase MY (Meito Sangyo), 340mg, 4g of R,S-HPPA methyl ester, and 200ml of 20mM KH2 PO4 (adjusted to pH 6.5) were mixed, with shaking, for 5.5 hours.
Analysis of the acid formed was carried out by extraction of the ester after adjustment of the aqueous solution to pH 6.5 (a slight pH drop occurs on hydrolysis) with CH2 Cl2 followed by adjusting the pH to 2 and extraction of the acid with ethyl acetate. The solution was evaporated to dryness, taken up in water and analyzed by HPLC with a Macherey Nagel-Duren Resolvosil BSA- column using 5% n-propanol, 10mM KH2 PO4, pH 5 at 2.7ml/min with detection at 220nm. At that time 35% of the R, S-ester was converted to the acid. The ratio of R and S acids was 94% R and 6% S.
Lipase MY (Meito Sangyo), Candida lipase B (Biocatalyst, Ltd), lipase OF (Meito Sangyo), and Lipase AY (Amano) were compared for stereoselectivity for production of R-HPPA from R,S-HPPA methyl ester. The preparations, in amounts shown in Table I, were added to 50 ml of 20 mM HPPA methyl ester in 50 mM KH2 PO4 pH 6.5. […] The ratio of R to S acid was determined by HPLC as described in Example 3 at approximately 16% hydrolysis of the ester.
Two hundred mls of KH2 PO4 (pH 6.5) was combined with 400 mg HPPA-Me and 500 units of T. californica acetylcholine esterase. The reaction mixture was shaken for 24 hours and then sampled and analyzed as in Example 3. […]

[3] = diethylene glycol ester, enzyme alone
[4] = ethylene glycol ester, + oleic acid
[5] = ethylene glycol ester, enzyme alone
[6] = monoglyceride ester, + oleic acid
[7] = monoglyceride ester, enzyme alone
[8] = monomethyl triethylene glycol ester, + oleic acid
[9] = monomethyl triethylene glycol ester, enzyme alone

Molecule	% ee (R = R-acid) ([1]; diethylene glycol ester, + oleic acid) [R]	% Acid ([1]; diethylene glycol ester, + oleic acid 200 ul) [%]	% Acid [1, 3] [%]	% ee (R = R-acid) [1, 3] [R]	% Acid [1, 4] [%]	% ee (R = R-acid) [1, 4] [R]	% Acid [1, 5] [%]	% ee (R = R-acid) [1, 5] [R]	% Acid [1, 6] [%]	% ee (R = R-acid) [1, 6] [R]	% Acid [1, 7] [%]	% ee (R = R-acid) [1, 7] [R]	% Acid [1, 8] [%]	% ee (R = R-acid) [1, 8] [R]	% Acid [1, 9] [%]	% ee (R = R-acid) [1, 9] [R]	stereoselective hydrolysis of HPPA-Me to R-HPPA [2]	hydrolyzing activity on HPPA-Me ([2]; 500 units, 400 mg HPPA-Me, pH 6.5, 24 hours)
Mucor miehei: Mucor miehei lipase (protein, UniProt P19515 95-363, looked up) Lipase: SIDGGIRAATSQEINELTYYTTLSANSYCRTVIPGATWDCIHCDATEDLKIIKTWSTLIYDTNAMVARGDSEKTIYIVFRGSSSIRNWIADLTFVPVSYPPVSGTKVHKGFLDSYGEVQNELVATVLDQFKQYPSYKVAVTGHSLGGATALLCALDLYQREEGLSSSNLFLYTQGQPRVGDPAFANYVVSTGIPYRRTVNERDIVPHLPPAAFGFLHAGEEYWITDNSPETVQVCTSDLETSDCSNSIVPFTSVLDHLSYFGINTGLCT	2	20	24	41	10	42	17	54	4	35	20	40	6	1	26	36		
acetylcholinesterase of T. californica: acetylcholine esterase from Torpedo californica (protein, UniProt P04058 22-564, looked up) Acetylcholinesterase: DDHSELLVNTKSGKVMGTRVPVLSSHISAFLGIPFAEPPVGNMRFRRPEPKKPWSGVWNASTYPNNCQQYVDEQFPGFSGSEMWNPNREMSEDCLYLNIWVPSPRPKSTTVMVWIYGGGFYSGSSTLDVYNGKYLAYTEEVVLVSLSYRVGAFGFLALHGSQEAPGNVGLLDQRMALQWVHDNIQFFGGDPKTVTIFGESAGGASVGMHILSPGSRDLFRRAILQSGSPNCPWASVSVAEGRRRAVELGRNLNCNLNSDEELIHCLREKKPQELIDVEWNVLPFDSIFRFSFVPVIDGEFFPTSLESMLNSGNFKKTQILLGVNKDEGSFFLLYGAPGFSKDSESKISREDFMSGVKLSVPHANDLGLDAVTLQYTDWMDDNNGIKNRDGLDDIVGDHNVICPLMHFVNKYTKFGNGTYLYFFNHRASNLVWPEWMGVIHGYEIEFVFGLPLVKELNYTAEEEALSRRIMHYWATFAKTGNPNEPHSQESKWPLFTTKEQKFIDLNTEPMKVHQRLRVQMCVFWNQFLPKLLNATACDGELSS																	did not stereoselectively hydrolyze	Very little hydrolyzing activity
